{"source": "patent US20130184160", "about": "“NUCLEOTIDES AND APTAMERS CONTAINING BORONIC ACID GROUPS HAVING BIASED BINDING TO GLYCOSYLATED PROTEINS, AND USES THEREOF” (published 2013)", "binders": {"B1": {"name": "85A TTP (ssDNA)", "DNA": "CCTTCGTTGTCTGCCTTCGTAGCGGATCGAATTACGCGTTAACGGCAACCGATAACGGGACCGATTGCACACCCTTCAGAATTCGCACCA"}, "B2": {"name": "85B TTP (ssDNA)", "DNA": "CCTTCGTTGTCTGCCTTCGTAGGACCGCAGACATCGACGCAGGGAAATTCCGCAAGTCCAGCCAAATGCCACCCTTCAGAATTCGCACCA"}, "B3": {"name": "85C TTP (ssDNA)", "DNA": "CCTTCGTTGTCTGCCTTCGTAGTCGACTCTGACGCATGGACGTATCCTGTGCGTATGCATTATGAAGCACACCCTTCAGAATTCGCACCA"}, "B4": {"name": "85A M-TTP (ssDNA)", "DNA": "B1 DNA", "modifications": "T positions from M-TTP (alkyne-modified dU without boronic acid)"}, "B5": {"name": "85A B-TTP H2O2-treated (ssDNA)", "DNA": "B1 DNA", "modifications": "B-TTP positions with boronic acid oxidised by peroxide"}}, "key": {"Fetuin": {"biological_target": "T1, Fetuin (UniProt P12763 P12763:19-359)", "T1 sequence": "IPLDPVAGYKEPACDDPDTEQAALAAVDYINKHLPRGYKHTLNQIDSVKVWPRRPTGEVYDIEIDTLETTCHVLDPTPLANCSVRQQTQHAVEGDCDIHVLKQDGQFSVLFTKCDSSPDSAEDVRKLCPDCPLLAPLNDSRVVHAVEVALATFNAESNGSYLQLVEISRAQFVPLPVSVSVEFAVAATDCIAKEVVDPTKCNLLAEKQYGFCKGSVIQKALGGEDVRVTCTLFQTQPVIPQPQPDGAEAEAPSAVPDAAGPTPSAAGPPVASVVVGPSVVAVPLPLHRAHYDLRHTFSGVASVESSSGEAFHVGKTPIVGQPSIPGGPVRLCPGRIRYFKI", "test": "filter; specificity control", "conditions": "label: alpha-32P-dATP"}, "[1]": {"biological_target": "Alpha-1 acid glycoprotein (UniProt P02763 P02763:19-201)", "sequence (P02763 19-201, one chain of several)": "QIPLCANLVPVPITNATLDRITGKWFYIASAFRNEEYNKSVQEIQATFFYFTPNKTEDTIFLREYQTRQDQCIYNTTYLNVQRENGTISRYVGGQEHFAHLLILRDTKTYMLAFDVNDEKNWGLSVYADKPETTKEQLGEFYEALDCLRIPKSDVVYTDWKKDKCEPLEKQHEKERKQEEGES", "test": "filter; specificity control", "conditions": "label: alpha-32P-dATP"}, "[2]": {"biological_target": "T2, Fibrinogen (glycosylated, untreated) (UniProt P02671-2;P02675;P02679 P02671-2:20-644,P02675:31-491,P02679:27-453)", "T2 sequence (P02671 other isoform, or with tags, fused parts or gaps, chain 1 of 3)": "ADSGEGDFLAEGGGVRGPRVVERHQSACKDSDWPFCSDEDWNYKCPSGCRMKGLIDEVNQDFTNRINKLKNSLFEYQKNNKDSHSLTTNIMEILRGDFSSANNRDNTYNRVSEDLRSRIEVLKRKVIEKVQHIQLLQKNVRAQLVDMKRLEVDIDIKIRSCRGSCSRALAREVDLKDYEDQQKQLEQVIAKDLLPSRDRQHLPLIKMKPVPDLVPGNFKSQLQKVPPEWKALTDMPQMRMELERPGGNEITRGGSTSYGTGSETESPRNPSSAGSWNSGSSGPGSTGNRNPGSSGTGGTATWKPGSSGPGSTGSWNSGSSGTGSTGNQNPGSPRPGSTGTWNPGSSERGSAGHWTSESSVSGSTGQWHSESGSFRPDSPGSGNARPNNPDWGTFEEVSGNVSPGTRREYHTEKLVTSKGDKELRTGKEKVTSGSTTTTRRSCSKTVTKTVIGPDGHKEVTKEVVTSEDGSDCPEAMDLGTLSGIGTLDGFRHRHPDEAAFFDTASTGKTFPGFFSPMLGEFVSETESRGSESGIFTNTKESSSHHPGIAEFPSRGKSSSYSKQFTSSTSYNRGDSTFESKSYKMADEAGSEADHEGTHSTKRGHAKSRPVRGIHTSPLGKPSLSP", "T2 sequence (P02675 31-491, chain 2 of 3)": "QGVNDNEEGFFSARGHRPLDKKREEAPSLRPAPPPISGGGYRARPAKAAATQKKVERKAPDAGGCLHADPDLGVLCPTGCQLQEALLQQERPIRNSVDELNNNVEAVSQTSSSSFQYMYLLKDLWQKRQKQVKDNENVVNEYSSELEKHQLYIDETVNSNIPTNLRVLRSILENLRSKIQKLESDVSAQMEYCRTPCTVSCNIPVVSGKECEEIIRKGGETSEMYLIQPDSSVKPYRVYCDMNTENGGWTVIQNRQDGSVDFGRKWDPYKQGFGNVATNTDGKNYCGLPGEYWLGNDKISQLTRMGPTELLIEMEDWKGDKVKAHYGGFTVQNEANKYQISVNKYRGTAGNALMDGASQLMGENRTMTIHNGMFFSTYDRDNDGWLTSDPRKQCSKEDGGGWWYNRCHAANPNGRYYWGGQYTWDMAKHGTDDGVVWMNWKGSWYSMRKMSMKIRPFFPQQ", "T2 sequence (P02679 27-453, chain 3 of 3)": "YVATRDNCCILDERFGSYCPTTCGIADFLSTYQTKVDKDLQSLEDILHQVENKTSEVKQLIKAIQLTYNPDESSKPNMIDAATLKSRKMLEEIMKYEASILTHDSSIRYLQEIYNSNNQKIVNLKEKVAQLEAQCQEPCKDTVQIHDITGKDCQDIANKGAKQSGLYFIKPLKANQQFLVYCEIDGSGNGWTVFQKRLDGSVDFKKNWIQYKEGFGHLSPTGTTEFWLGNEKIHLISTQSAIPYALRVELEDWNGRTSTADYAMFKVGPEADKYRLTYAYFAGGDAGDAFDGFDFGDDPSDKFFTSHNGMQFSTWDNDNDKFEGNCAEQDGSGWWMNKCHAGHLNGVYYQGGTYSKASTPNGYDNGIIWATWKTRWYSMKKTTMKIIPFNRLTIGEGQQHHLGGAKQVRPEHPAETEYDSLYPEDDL", "test": "filter; same buffer; 102 nM in Table 1", "conditions": "chain copies: 2; label: alpha-32P-dATP", "procedure": "(§1) Dissociation constants in solution were determined by equilibrium filtration (Jenison et al., Science 1994, 263, 1425-1429; Huang & Szostak, RNA 2003, 9: 1456-1463, incorporated herein by reference in their entireties). Using this technique, the bound and unbound ligand (DNA) partition between the two portions separated by a membrane. DNA was first amplified into dsDNA using two primers by PCR (25 cycles of 0.5 min at 94° C., 0.5 min at 46° C., and 0.5 min at 72° C., followed by 5 min at 72° C.). The dsDNA product was then split into ssDNA using one primer and α-³²P-dATP by one-round PCR. The ³²P-labeled ssDNA ligand (10 nM) and the protein (1-1000 nM) in the 100 μL of binding buffer were incubated for 15 min at 25° C. prior to loading into the Microcon YM-100 unit (Millipore, Billerica, Mass.). The solution was centrifuged at 13,000 g for 10 sec to saturate the membrane, and the filtrate was transferred back to the unit. […] Aliquots (10 μL) were taken from both the remaining solution and the filtrate, and radioactivity in each aliquot was determined by Beckman LS 6500 liquid scintillation counter. […]\n(§2) To determine the extent to which the aptamers 85A (SEQ ID NO.: 13), 85B (SEQ ID NO.: 14), and 85C (SEQ ID NO.: 15) bind specifically to fibrinogen, their dissociation constants (Kd) were measured using the equilibrium filtration method with radiolabeled α-³²P-dATP. […]"}, "[3]": {"biological_target": "Fibrinogen, periodate-treated (UniProt P02671-2;P02675;P02679 P02671-2:20-644,P02675:31-491,P02679:27-453)", "sequence (P02671 other isoform, or with tags, fused parts or gaps, chain 1 of 3)": "as the sequence (P02671 other isoform, or with tags, fused parts or gaps, chain 1 of 3) above", "sequence (P02675 31-491, chain 2 of 3)": "as the sequence (P02675 31-491, chain 2 of 3) above", "sequence (P02679 27-453, chain 3 of 3)": "as the sequence (P02679 27-453, chain 3 of 3) above", "test": "filter; same buffer", "conditions": "tags: glycans oxidised with sodium periodate; chain copies: 2; label: alpha-32P-dATP", "procedure": "(§3) Dissociation constants in solution were determined by equilibrium filtration (Jenison et al., Science 1994, 263, 1425-1429; Huang & Szostak, RNA 2003, 9: 1456-1463, incorporated herein by reference in their entireties). Using this technique, the bound and unbound ligand (DNA) partition between the two portions separated by a membrane. DNA was first amplified into dsDNA using two primers by PCR (25 cycles of 0.5 min at 94° C., 0.5 min at 46° C., and 0.5 min at 72° C., followed by 5 min at 72° C.). The dsDNA product was then split into ssDNA using one primer and α-³²P-dATP by one-round PCR. The ³²P-labeled ssDNA ligand (10 nM) and the protein (1-1000 nM) in the 100 μL of binding buffer were incubated for 15 min at 25° C. prior to loading into the Microcon YM-100 unit (Millipore, Billerica, Mass.). The solution was centrifuged at 13,000 g for 10 sec to saturate the membrane, and the filtrate was transferred back to the unit. The solution was centrifuged for another 20 sec, and the filtrate (about 10 μL) was collected. Aliquots (10 μL) were taken from both the remaining solution and the filtrate, and radioactivity in each aliquot was determined by Beckman LS 6500 liquid scintillation counter. All binding assays were duplicated. The equilibrium dissociation constants (Kd) of the ligand-protein interaction were obtained by fitting the dependence of bound fractions of specific binding on the concentration of the […] to the equation Y=B max X/(Kd+X), using the SigmaPlot program.\n(§4) To determine the extent to which the aptamers 85A (SEQ ID NO.: 13), 85B (SEQ ID NO.: 14), and 85C (SEQ ID NO.: 15) bind specifically to fibrinogen, their dissociation constants (Kd) were measured using the equilibrium filtration method with radiolabeled α-³²P-dATP. The target substrate to which the aptamer was binding was fibrinogen (FIG. 12A), deglycosylated fibrinogen (FIG. 12B) and periodated fibrinogen (FIG. 12C)."}, "[4]": {"biological_target": "Fibrinogen, deglycosylated (UniProt P02671-2;P02675;P02679 P02671-2:20-644,P02675:31-491,P02679:27-453)", "sequence (P02671 other isoform, or with tags, fused parts or gaps, chain 1 of 3)": "as the sequence (P02671 other isoform, or with tags, fused parts or gaps, chain 1 of 3) above", "sequence (P02675 31-491, chain 2 of 3)": "as the sequence (P02675 31-491, chain 2 of 3) above", "sequence (P02679 27-453, chain 3 of 3)": "as the sequence (P02679 27-453, chain 3 of 3) above", "test": "filter; same buffer", "conditions": "tags: chemically deglycosylated with TFMS; chain copies: 2; label: alpha-32P-dATP", "procedure": "as §3, §4"}, "[5]": {"biological_target": "T2, Fibrinogen (glycosylated, untreated)", "test": "filter; same buffer; 64 nM in Table 1", "conditions": "chain copies: 2; label: alpha-32P-dATP", "procedure": "as §1, §2"}, "[6]": {"biological_target": "T2, Fibrinogen (glycosylated, untreated)", "test": "filter; same buffer; 193 nM in Table 1", "conditions": "chain copies: 2; label: alpha-32P-dATP", "procedure": "as §1, §2"}, "[7]": {"biological_target": "T2, Fibrinogen (glycosylated, untreated)", "test": "filter; same buffer", "conditions": "chain copies: 2; label: alpha-32P-dATP", "procedure": "as §3, §4"}, "[8]": {"biological_target": "T2, Fibrinogen (glycosylated, untreated)", "test": "filter; same buffer; boronic acid destroyed by peroxide", "conditions": "chain copies: 2; label: alpha-32P-dATP"}}}
{"binder": "B1", "values": [{"measurement": "Kd", "setting": "Fetuin", "result": 1600, "unit": "nM"}, {"measurement": "Kd", "setting": "[1]", "result": 600, "unit": "nM"}, {"measurement": "Kd", "setting": "[2]", "result": 102, "unit": "nM"}, {"measurement": "Kd", "setting": "[3]", "result": 67.4, "unit": "nM"}, {"measurement": "Kd", "setting": "[4]", "result": 60.2, "unit": "nM"}]}
{"binder": "B2", "values": [{"measurement": "Kd", "setting": "[5]", "result": 63.8, "unit": "nM"}, {"measurement": "Kd", "setting": "[3]", "result": 130, "unit": "nM"}, {"measurement": "Kd", "setting": "[4]", "result": 140, "unit": "nM"}]}
{"binder": "B3", "values": [{"measurement": "Kd", "setting": "[6]", "result": 122, "unit": "nM"}, {"measurement": "Kd", "setting": "[3]", "result": 321, "unit": "nM"}, {"measurement": "Kd", "setting": "[4]", "result": 256, "unit": "nM"}]}
{"binder": "B4", "values": [{"measurement": "Kd", "setting": "[7]", "result": 138, "unit": "nM"}]}
{"binder": "B5", "values": [{"measurement": "Kd", "setting": "[8]", "result": 173, "unit": "nM"}]}
